This note sets out measurements from publication PMC3553952 (Nucleic Acids Research, 2012).

For one data set, the target named is T1, Pab-aCPSF1 (Pyrococcus abyssi, UniProt Q9V0P0 1-648).
T1 sequence: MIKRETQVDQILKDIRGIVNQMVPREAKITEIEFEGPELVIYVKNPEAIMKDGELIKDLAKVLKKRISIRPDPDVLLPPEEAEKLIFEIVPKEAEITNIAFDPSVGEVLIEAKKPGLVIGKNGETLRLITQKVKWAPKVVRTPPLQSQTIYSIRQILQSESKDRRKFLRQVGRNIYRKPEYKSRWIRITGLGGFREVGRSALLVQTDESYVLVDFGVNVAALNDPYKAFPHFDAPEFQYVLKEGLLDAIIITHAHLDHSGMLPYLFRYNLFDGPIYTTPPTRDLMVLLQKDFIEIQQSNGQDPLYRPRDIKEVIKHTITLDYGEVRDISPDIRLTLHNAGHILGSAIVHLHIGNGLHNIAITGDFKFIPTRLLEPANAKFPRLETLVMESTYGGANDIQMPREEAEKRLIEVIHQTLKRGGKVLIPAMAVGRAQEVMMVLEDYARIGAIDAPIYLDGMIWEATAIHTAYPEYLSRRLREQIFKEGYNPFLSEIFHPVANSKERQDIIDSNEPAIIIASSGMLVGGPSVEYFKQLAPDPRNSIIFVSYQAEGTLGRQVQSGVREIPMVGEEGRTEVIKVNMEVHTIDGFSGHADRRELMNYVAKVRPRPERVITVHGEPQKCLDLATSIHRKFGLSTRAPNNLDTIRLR
As to the kind of experiment: EMSA. On the technique in general: In EMSA bound probe runs differently from free probe, usually more slowly.

The data set “SEC” concerns the molecule itself. Put plainly: SEC. (SEC sorts molecules by how far they enter the pores of the column.)

B1: sR47Mut21U (structured_RNA)
RNA: GAUGAAGAUGAUGAGCUCGGUAGGUCCUGAGGAGUGAUGAGGAUCUUGAGUGCUGAUUCACCUU
For the molecule B1, the binding result with Pab-aCPSF1 is “binds”.

B2: Pab-aCPSF1ΔKH (variant missing the first 179 residues of Pab-aCPSF1) (domain or fragment, Pyrococcus abyssi, UniProt Q9V0P0 180-648, looked up)
chain: EYKSRWIRITGLGGFREVGRSALLVQTDESYVLVDFGVNVAALNDPYKAFPHFDAPEFQYVLKEGLLDAIIITHAHLDHSGMLPYLFRYNLFDGPIYTTPPTRDLMVLLQKDFIEIQQSNGQDPLYRPRDIKEVIKHTITLDYGEVRDISPDIRLTLHNAGHILGSAIVHLHIGNGLHNIAITGDFKFIPTRLLEPANAKFPRLETLVMESTYGGANDIQMPREEAEKRLIEVIHQTLKRGGKVLIPAMAVGRAQEVMMVLEDYARIGAIDAPIYLDGMIWEATAIHTAYPEYLSRRLREQIFKEGYNPFLSEIFHPVANSKERQDIIDSNEPAIIIASSGMLVGGPSVEYFKQLAPDPRNSIIFVSYQAEGTLGRQVQSGVREIPMVGEEGRTEVIKVNMEVHTIDGFSGHADRRELMNYVAKVRPRPERVITVHGEPQKCLDLATSIHRKFGLSTRAPNNLDTIRLR
One may read the stoichiometry N as a count of units in the complex or per binding partner. On to B2, for which, in “SEC”, the “stoichiometry N” value turned out to be 2.

B3: sR47MutCG (structured_RNA)
RNA: GAUGAAGAUGAUGAGCUCGGCAGGUCCUGAGGAGUGAUGAGGAUCUGCUGAGUGCUGAUUCACCUU
Take B3: the binding result with Pab-aCPSF1 was “binds”.
